One molecule from patent publication US6673571B2, “Polypeptides having aminopeptidase activity and nucleic acids encoding same” (Novozymes Biotech, Inc., priority 1997, dated 2004) can be followed below.

The series is described as follows: Specific activity in glycine aminopeptidase units (GAPU). The class given is biochemical. To be noted: Gly-pNA, 50 mM Tris-HCl pH 7.5, 37° C. On the procedure: The enzymes used with FLAVOURZYME™ and ALCALASE® were crude Sphingomonas capsulata aminopeptidase I powder and purified Sphingomonas capsulata aminopeptidase I as in Example 7. Glycine aminopeptidase unit (GAPU) of both crude and purified enzyme was measured in 50 mM Tris-HCl pH 7.5 buffer at 37° C. using Gly-pNA as a substrate. Aminopeptidase I was assayed at 37° C. in 50 mM Tris-HCl (pH 7.5). Gly-pNA (Bachem Feinchemikalien AG, Bubendorf, Switzerland) was dissolved in 40% dioxane at a concentration of 2.5 mg/ml and 1.5 volume of 50 mM Tris-HCl (pH 7.5) was added to a substrate concentration of 1 mg/ml. The enzyme sample was diluted in 500 μl of the same buffer and 100 μl of the substrate solution was added and incubated at 37° C. for 5 minutes. The reaction was terminated by the addition of 300 μl of 1 M sodium acetate pH 4.0 buffer. For the blank reaction, the stop solution was added to the enzyme solution and incubated for 5 minutes at 37° C., and then the substrate solution was added. The absorbance at 410 nm was measured for both the sample and blank reactions. The enzyme activity was calculated using the molecular extinction coefficient at 410 nm for pNA as 9480 M^−1 cm^−1. One unit of GAPU was defined as the quantity of enzyme that hydrolyses 1 micromole of Gly-pNA at 37° C. per minute under the conditions described above. […]

B1: Sphingomonas capsulata aminopeptidase I: purified aminopeptidase of 67 kDa from Sphingomonas capsulata IFO 12533; deduced amino acid sequence SEQ ID NO:2 (protein)
chain: MRKTPQGIGLLSALSTSTLALATLILAQPALAQVQPASNSRPMAVPIAHGVPDAQDVPYPGTIGLQIDATDLATGAFRVVETVPVAADAKELILQLPAWLPGEHGNRGPVAELAGITFEAKGQKLAWTRDPVEVNAFHIPLPAGTSEVVARFIHTSPLRDSEGRITVTREMLNVQWEKMSLYPAGHYVRQIKVRPTVSFPQGWTVFTALDGKTQSGAGNTVTWAETDYETLVDSPIFAGLYAARHDLGHNVYFDLVADKPELLAIKPENLAAYRNLADEAVGAFGARHFDHYDFLLALTDRMGSIGLEHHRSSENQQEPKSLTDWAAYDWDRNVIAHEFSHSWDGKYRRSAKLWTPDYRQPMQDNLLWVYEGQTQFWGLVLAARSGVQSKDVVLGSLANYAGTFTQTAGRDWRSVEDTTMDPIFAARKPKPYSSLTRNEDYYTEGALVWLEADQIIRDGTGGKKGLDDFAKAFFGVRDGDWGVLTYEFDDVVKTLNGVYPYDWATFLKTRLQTPGQPVPLGGIERGGYKLEFKDEPNPYDKARMADAKVLSLFNSLGVTLDKDGKVTASRWDGPAFKAGLVSGMQVMAVNGDAYDADKLKGAITNAKTGNPGAGRPIELLVKRDDRFVTLPITYADGLRWPWLVRTAPGTAPTGLDKLLAPHASKLPVGKAAK
Molecule B1 showed a specific activity of 6.45 GAPU/mg.
